{
  "source": "paper doi:10.1101/157495",
  "about": "(bioRxiv, 2017)",
  "target": "the molecule itself",
  "experiment": "SEC",
  "data": [
    {"protein": "cyclohexadienyl dehydratase from Pseudomonas aeruginosa (PaCDT) (enzyme, UniProt Q01269 26-268, looked up) QESRLDRILESGVLRVATTGDYKPFSYRTEEGGYAGFDVDMAQRLAESLGAKLVVVPTSWPNLMRDFADDRFDIAMSGISINLERQRQAYFSIPYLRDGKTPITLCSEEARFQTLEQIDQPGVTAIVNPGGTNEKFARANLKKARILVHPDNVTIFQQIVDGKADLMMTDAIEARLQSRLHPELCAVHPQQPFDFAEKAYLLPRDEAFKRYVDQWLHIAEQSGLLRQRMEHWLEYRWPTAHGK", "values": [
      {"measurement": "stoichiometry N", "value": 3}
    ]}
  ]
}
